In patent US6696409:

Columns and labels:
[1] = target: Y1 receptors in anaesthetised rats (rat); assay: cell-based or functional assay
[2] = target: Y2-like receptors in anaesthetised rats (rat); assay: cell-based or functional assay

In the case of “Ac[L28,I30]NPY24-36 (from UniProt P01303 52-64) (peptide)”, the Increase in BP (rel to NPY), anaesthetised rats (relative to NPY) [1] is reported as 0 and the EC50 of the change in pulse interval (PI %), vagal stimulation in anaesthetised rats [2] is reported as 1.26 nmol.
